Experiments:
[1] = target: human NaV1.5 voltage-gated sodium channel (human) (UniProt Q14524)
[2] = target: human NaV1.5 voltage-gated sodium channel (human) (UniProt Q14524); remark: listed apart in the source

UniProt Q14524, sequence (Q14524 whole entry): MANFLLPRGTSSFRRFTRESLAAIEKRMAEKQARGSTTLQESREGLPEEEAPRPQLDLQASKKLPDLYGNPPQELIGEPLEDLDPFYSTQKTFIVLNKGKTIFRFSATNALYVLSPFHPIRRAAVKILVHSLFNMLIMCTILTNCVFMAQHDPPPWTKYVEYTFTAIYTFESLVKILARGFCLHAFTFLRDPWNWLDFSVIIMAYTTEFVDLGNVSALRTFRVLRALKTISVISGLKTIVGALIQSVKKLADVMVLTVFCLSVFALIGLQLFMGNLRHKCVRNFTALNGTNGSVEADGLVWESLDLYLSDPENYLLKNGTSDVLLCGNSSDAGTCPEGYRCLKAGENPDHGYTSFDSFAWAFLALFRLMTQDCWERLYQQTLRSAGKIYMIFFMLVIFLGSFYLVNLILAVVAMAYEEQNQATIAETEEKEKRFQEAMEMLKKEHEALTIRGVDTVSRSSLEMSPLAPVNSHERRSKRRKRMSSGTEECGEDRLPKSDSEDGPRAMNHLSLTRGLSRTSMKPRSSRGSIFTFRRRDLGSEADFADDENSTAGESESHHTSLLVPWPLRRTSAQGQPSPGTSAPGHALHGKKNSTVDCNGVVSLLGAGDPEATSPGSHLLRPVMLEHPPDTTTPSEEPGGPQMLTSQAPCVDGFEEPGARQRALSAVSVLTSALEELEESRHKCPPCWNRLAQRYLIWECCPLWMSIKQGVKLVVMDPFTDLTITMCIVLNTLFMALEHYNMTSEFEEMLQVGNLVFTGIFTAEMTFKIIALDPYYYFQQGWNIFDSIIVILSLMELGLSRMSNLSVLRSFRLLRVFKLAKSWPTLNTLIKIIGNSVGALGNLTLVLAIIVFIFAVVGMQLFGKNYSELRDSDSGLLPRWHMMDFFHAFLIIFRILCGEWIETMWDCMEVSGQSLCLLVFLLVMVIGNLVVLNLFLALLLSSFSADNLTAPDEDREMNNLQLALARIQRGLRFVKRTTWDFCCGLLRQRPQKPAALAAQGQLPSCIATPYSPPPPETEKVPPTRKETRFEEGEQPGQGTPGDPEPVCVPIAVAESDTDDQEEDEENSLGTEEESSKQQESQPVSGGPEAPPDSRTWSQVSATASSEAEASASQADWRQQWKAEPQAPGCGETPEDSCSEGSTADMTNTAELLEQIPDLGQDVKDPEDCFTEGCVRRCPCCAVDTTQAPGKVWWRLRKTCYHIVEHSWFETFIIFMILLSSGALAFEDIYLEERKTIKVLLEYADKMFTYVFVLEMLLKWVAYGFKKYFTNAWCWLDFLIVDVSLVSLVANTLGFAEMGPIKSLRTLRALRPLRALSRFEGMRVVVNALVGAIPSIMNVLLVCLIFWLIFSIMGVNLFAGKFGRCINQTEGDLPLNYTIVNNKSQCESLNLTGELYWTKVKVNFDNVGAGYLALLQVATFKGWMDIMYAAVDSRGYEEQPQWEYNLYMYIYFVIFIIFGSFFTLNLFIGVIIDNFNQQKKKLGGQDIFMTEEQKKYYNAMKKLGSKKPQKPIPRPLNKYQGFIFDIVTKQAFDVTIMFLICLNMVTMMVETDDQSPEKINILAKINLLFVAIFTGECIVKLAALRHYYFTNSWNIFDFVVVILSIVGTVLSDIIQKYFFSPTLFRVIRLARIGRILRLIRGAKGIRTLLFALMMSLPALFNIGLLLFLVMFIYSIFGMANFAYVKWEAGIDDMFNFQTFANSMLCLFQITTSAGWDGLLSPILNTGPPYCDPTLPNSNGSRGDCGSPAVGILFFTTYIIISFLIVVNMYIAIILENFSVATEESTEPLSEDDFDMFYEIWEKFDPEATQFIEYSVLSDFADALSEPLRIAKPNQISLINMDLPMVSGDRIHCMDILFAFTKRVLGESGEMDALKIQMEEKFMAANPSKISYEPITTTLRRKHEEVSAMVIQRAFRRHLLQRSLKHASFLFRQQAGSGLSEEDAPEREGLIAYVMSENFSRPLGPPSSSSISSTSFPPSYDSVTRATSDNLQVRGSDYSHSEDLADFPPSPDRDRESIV

“FS50, salivary protein from the flea Xenopsylla cheopis (from UniProt A2IAD2 20-96) (natural protein)” was tested, and the time constant of inhibition of NaV1.5 currents at 5 μM FS50, whole-cell patch clamp on HEK 293T cells [1] was 15 s, the IC50 of inhibition of NaV1.5 currents, whole-cell patch clamp on HEK 293T cells, FS50 from 0.1 nM to 100 μM [2] was 1580 nM and the reduction of the control peak amplitude of the NaV1.5 current at 10 μM FS50, whole-cell patch clamp on HEK 293T cells (at 30 μM the remaining inward current was eliminated completely) [2] was 82.5%.

Reference: PMC5098211
